Data from article PMC7764042.

Key:
[1] = target: recombinant human interferon alfa-2b (human) (UniProt P01563); assay: SPR; IFN-α immobilised by amine coupling; S100 proteins as analyte; 25 °C; 10 mM HEPES, 150 mM NaCl, 0.01% TWEEN 20, pH 7.4
Tag7 (Homo sapiens) = Tag7 (Homo sapiens) (UniProt O75594); settings: cited from earlier work
S100P (Homo sapiens) = S100P (Homo sapiens) (UniProt P25815); settings: cited from earlier work
[2] = target: IFNAR2 ECD (Homo sapiens) (UniProt P48551); settings: cited from earlier work

## recombinant human S100A1 (from UniProt P23297 2-94) (natural protein)
[1]
  Kd: > 10000 nM

## S100A4 (from UniProt P26447)
Tag7 (Homo sapiens)
  Kd: 1 nM

## recombinant human S100A4 (from UniProt P26447 1-101) (natural protein)
[1]
  Kd: > 10000 nM

## IFN-β (from UniProt P01574)
S100P (Homo sapiens)
  Kd: 0.3 nM
[2]
  Kd: < 0.1 nM
